Results taken from article PMC4148842.

What was measured:
peptide II-44G = experiment: solid-phase binding assay (SPBA); conditions: parent: est. 0.10; read off a plot
peptide II-44I = experiment: solid-phase binding assay (SPBA); conditions: read off a plot
peptide II-44C = experiment: solid-phase binding assay (SPBA); conditions: read off a plot
peptide II-44B = experiment: solid-phase binding assay (SPBA); conditions: read off a plot
peptide II-44A = experiment: solid-phase binding assay (SPBA); conditions: read off a plot
peptide II-44F = experiment: solid-phase binding assay (SPBA); conditions: read off a plot
peptide II-44E = experiment: solid-phase binding assay (SPBA); conditions: read off a plot
Toolkit peptide II-44 = experiment: ELISA; solid-phase binding assay (SPBA), Fig. 1: Toolkit II peptides, fibrillar type I collagen or GPP10 coated at 10 μg/ml on Immulon 2 HB wells; MMP preparation or Hpx at 83 nM in TBS with 1 mg/ml BSA and 0.1% Tween-20, 1 h at 24 °C; detected with an antibody to the MMP-13 hinge region (Hpx: anti-GST), A450
peptide II-44J [1] = experiment: ELISA; SPBA on truncated and Ala-substituted II-44 variant peptides, carried out as for Fig. 1 (Fig. 4)
Toolkit peptide II-52 = experiment: ELISA; solid-phase binding assay (SPBA), Fig. 1: Toolkit II peptides, fibrillar type I collagen or GPP10 coated at 10 μg/ml on Immulon 2 HB wells; MMP preparation or Hpx at 83 nM in TBS with 1 mg/ml BSA and 0.1% Tween-20, 1 h at 24 °C; detected with an antibody to the MMP-13 hinge region (Hpx: anti-GST), A450
Toolkit peptide II-49 = experiment: as above
Toolkit peptide II-21 = experiment: as above
Toolkit peptide II-51 = experiment: as above
Toolkit peptide II-53 = experiment: as above
Toolkit peptide II-45 = experiment: as above
Toolkit peptide II-54 = experiment: as above
Toolkit peptide II-24 = experiment: as above
Toolkit peptide II-50 = experiment: as above
Toolkit peptide II-17 = experiment: as above
Toolkit peptide II-55 = experiment: as above
Toolkit peptide II-13 = experiment: as above
Toolkit peptide II-28 = experiment: as above
Toolkit peptide II-56 = experiment: as above
[2] = target: Fibrous bovine type I collagen (bovine) (UniProt P02453); experiment: ELISA; SPBA, increasing concentrations of MMP-13 or MMP-13(E204A) on wells coated with fibrillar or monomeric type I collagen (10 μg/ml); KD from fitted curves (Fig. 3)
Sequence of Fibrous bovine type I collagen (bovine) (P02453 162-1217, chain 1 of 2): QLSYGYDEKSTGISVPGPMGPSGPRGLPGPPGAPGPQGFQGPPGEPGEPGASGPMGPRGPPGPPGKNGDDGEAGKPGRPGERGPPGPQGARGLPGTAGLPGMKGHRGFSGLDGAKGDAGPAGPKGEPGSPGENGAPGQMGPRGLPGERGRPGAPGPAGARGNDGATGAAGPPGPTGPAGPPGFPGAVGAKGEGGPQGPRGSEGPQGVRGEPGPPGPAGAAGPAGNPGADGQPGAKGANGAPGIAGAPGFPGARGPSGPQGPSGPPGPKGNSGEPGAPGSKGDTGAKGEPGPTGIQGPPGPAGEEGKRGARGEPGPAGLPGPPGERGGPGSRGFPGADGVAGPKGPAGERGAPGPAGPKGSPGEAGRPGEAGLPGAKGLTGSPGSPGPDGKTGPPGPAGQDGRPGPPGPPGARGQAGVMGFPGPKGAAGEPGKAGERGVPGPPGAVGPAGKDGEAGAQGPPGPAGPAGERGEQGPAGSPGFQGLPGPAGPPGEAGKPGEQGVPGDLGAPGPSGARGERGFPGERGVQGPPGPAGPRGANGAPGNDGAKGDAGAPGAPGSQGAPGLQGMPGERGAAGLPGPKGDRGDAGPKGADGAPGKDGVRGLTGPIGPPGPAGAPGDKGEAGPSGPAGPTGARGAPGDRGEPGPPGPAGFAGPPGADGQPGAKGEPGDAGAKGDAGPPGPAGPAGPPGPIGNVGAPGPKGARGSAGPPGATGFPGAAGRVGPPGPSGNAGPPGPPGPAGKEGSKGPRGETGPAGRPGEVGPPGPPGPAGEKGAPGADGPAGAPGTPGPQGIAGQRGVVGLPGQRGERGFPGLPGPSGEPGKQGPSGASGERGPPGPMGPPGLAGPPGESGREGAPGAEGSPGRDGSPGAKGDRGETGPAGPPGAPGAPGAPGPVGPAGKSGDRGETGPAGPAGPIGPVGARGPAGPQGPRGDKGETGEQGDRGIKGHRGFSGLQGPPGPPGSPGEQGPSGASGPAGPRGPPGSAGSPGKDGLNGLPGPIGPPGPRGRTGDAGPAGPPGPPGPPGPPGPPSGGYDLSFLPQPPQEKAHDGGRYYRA
Sequence of Fibrous bovine type I collagen (bovine) (P02465 80-1117, chain 2 of 2, further chain): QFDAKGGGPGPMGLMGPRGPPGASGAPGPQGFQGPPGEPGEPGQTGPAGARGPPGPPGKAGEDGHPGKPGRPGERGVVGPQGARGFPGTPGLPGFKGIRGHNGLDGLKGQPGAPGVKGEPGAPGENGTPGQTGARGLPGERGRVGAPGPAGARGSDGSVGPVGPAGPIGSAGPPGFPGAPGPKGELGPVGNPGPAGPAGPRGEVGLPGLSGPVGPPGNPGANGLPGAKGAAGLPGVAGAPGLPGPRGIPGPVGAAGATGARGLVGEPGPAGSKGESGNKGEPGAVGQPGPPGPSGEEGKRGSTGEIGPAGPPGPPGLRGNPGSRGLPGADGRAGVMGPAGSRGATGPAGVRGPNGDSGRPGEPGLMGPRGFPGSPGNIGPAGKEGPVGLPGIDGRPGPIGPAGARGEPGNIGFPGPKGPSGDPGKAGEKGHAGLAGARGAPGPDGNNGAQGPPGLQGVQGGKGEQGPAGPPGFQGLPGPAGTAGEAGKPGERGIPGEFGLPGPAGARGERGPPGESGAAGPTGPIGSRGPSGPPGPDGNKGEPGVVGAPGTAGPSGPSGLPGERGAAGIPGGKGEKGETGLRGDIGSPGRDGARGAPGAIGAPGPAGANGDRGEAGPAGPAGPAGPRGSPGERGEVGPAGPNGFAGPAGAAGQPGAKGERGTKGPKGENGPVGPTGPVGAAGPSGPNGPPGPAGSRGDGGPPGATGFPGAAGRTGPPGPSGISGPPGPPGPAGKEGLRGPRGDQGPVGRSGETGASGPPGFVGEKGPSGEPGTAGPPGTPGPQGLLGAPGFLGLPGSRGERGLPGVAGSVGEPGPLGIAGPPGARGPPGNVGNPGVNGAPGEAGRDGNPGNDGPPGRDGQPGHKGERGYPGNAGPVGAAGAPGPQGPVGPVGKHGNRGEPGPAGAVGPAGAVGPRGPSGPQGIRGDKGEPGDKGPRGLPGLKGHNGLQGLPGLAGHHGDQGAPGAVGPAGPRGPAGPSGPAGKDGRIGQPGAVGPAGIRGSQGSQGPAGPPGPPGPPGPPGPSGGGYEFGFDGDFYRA

[3] = target: Monomeric collagen (type I) (UniProt P02453); experiment: as above
Sequence of Monomeric collagen (type I) (P02453 162-1217, chain 1 of 2): as the sequence (P02453 162-1217, chain 1 of 2) above
Sequence of Monomeric collagen (type I) (P02465 80-1117, chain 2 of 2, further chain): as the sequence (P02465 80-1117, chain 2 of 2, further chain) above

[4] = target: Fibrous bovine type I collagen (bovine) (UniProt P02453); experiment: ELISA; solid-phase binding assay (SPBA), Fig. 1: Toolkit II peptides, fibrillar type I collagen or GPP10 coated at 10 μg/ml on Immulon 2 HB wells; MMP preparation or Hpx at 83 nM in TBS with 1 mg/ml BSA and 0.1% Tween-20, 1 h at 24 °C; detected with an antibody to the MMP-13 hinge region (Hpx: anti-GST), A450
peptide II-44H = experiment: solid-phase binding assay (SPBA); conditions: parent: est. 0.31; read off a plot
peptide II-44D = experiment: solid-phase binding assay (SPBA); conditions: parent: est. 0.19; read off a plot
peptide II-44J [5] = experiment: solid-phase binding assay (SPBA); conditions: parent: est. 0.26; read off a plot

Substance: MMP-13 (from UniProt P45452) E204A
- response (peptide II-44G): 0.57 A450
- response (peptide II-44I; parent: est. 0.20): 1.1 A450
- response (peptide II-44C; parent: est. 0.18): 0.87 A450
- response (peptide II-44B; parent: est. 0.09): 0.15 A450
- response (peptide II-44A; parent: est. 0.19): 1.1 A450
- response (peptide II-44F; parent: est. 0.08): 0.57 A450
- response (peptide II-44E; parent: est. 0.16): 0.95 A450

Substance: MMP-13 GST-Hpx domain (domain or fragment)
- A450 (Toolkit peptide II-44): 0.8 A450
- A450 (peptide II-44J [1]): 0.4 A450

Substance: MMP-13(E204A) (enzyme)
- A450 (Toolkit peptide II-52): > 0.3 A450
- A450 (Toolkit peptide II-49): > 0.3 A450
- A450 (Toolkit peptide II-21): > 0.3 A450
- A450 (Toolkit peptide II-44): > 1.2 A450
- A450 (Toolkit peptide II-51): > 0.3 A450
- A450 (Toolkit peptide II-53): > 0.3 A450
- A450 (Toolkit peptide II-45): > 0.3 A450
- A450 (Toolkit peptide II-54): > 0.3 A450
- A450 (Toolkit peptide II-24): < 0.2 A450
- A450 (Toolkit peptide II-50): > 0.3 A450
- A450 (Toolkit peptide II-17): > 0.3 A450
- A450 (Toolkit peptide II-55): > 0.3 A450
- A450 (Toolkit peptide II-13): > 0.3 A450
- A450 (Toolkit peptide II-28): < 0.2 A450
- A450 (Toolkit peptide II-56): > 0.3 A450
- A450 (peptide II-44J [1]): 0.8 A450
- Kd [2]: 52 nM
- Kd [3]: 26 nM

Substance: proMMP-13 (from UniProt P45452 20-471) (enzyme)
- A450 [4]: > 1 A450

Substance: proMMP-13 (from UniProt P45452) E204A
- response (peptide II-44I; parent: est. 0.41): 0.36 A450
- response (peptide II-44C; parent: est. 0.24): 0.23 A450
- response (peptide II-44H): 0.29 A450
- response (peptide II-44D): 0.15 A450
- response (peptide II-44B; parent: est. 0.08): 0.08 A450
- response (peptide II-44A; parent: est. 0.41): 0.41 A450
- response (peptide II-44J [5]): 0.29 A450
- response (peptide II-44F; parent: est. 0.09): 0.12 A450
- response (peptide II-44E; parent: est. 0.33): 0.31 A450
